Measurements as given in publication PMC5885141 (Molecular imaging and biology : MIB : the official …, 2014).
Where two headings read alike, the source gives them in different places. IR800 = IRDye800CW

Key:
[1] = biological target: T1, gastrin-releasing peptide receptor (human, UniProt P30550 1-384); experiment: radioligand binding
[2] = biological target: T1, gastrin-releasing peptide receptor; experiment: radioligand binding; remark: listed apart in the source

T1 sequence (P30550 whole entry): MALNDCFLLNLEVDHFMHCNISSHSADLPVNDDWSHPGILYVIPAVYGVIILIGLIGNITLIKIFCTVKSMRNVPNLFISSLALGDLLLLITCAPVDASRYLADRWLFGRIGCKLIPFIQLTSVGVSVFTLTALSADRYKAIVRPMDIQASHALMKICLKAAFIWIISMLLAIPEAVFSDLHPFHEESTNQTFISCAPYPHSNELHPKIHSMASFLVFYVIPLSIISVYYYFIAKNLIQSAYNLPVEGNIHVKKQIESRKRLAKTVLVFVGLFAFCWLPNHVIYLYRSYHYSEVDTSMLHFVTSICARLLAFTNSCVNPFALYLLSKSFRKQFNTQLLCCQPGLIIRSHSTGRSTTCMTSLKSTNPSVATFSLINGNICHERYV

## IR800-GSGQWAVGHLM-NH2 [IR800-GSG-t-BBN]
[1]
  IC50: 56 nM
[2]
  IC50: 57.4 nM
